Source: patent US20200024330A1

Experiments:
Test in all cases: cell-based or functional assay
[1] = molecular target: HIV-1 92BR020 envelope glycoprotein (Env) on pseudovirus (HIV-1)
[2] = molecular target: HIV-1 92RW020 envelope glycoprotein (Env) on pseudovirus (HIV-1)
[3] = molecular target: HIV-1 92TH021 envelope glycoprotein (Env) on pseudovirus (HIV-1)
[4] = molecular target: HIV-1 92UG005 envelope glycoprotein (Env) on pseudovirus (HIV-1)
[5] = molecular target: HIV-1 92UG024 envelope glycoprotein (Env) on pseudovirus (HIV-1)
[6] = molecular target: HIV-1 Env of isolate JRFL (HIV-1)
[7] = molecular target: HIV-1 Env of isolate MGRM-C-013 (HIV-1)
[8] = molecular target: HIV-1 Env of isolate MGRM-Chronic-B-010 (HIV-1)
[9] = molecular target: HIV-1 Env of isolate MGRM-Chronic-B-011 (HIV-1)
[10] = molecular target: HIV-1 Env of isolate MGRM-Chronic-B-012 (HIV-1)
[11] = molecular target: HIV-1 Env of isolate MGRM-Chronic-B-017 (HIV-1)
[12] = molecular target: HIV-1 Env of isolate MGRM-Chronic-B-018 (HIV-1)
[13] = molecular target: HIV-1 Env of isolate MGRM-Chronic-B-020 (HIV-1)
[14] = molecular target: HIV-1 Env of isolate MGRM-Chronic-B-023 (HIV-1)
[15] = molecular target: HIV-1 Env of isolate MGRM-Chronic-B-024 (HIV-1)
[16] = molecular target: HIV-1 Env of isolate MGRM-D-003 (HIV-1)
[17] = molecular target: HIV-1 Env of isolate MGRM-G-001 (HIV-1)
[18] = molecular target: HIV-1 Env of isolate MGRM-G-004 (HIV-1)
[19] = molecular target: HIV-1 Env of isolate MGRM-G-006 (HIV-1)
[20] = molecular target: HIV-1 Env of isolate MGRM-G-009 (HIV-1)
[21] = molecular target: HIV-1 Env of isolate MGRM-G-011 (HIV-1)
[22] = molecular target: HIV-1 Env of isolate MGRM-G-013 (HIV-1)
[23] = molecular target: HIV-1 Env of isolate MGRM-G-014 (HIV-1)
[24] = molecular target: HIV-1 Env of isolate MGRM-G-015 (HIV-1)
[25] = molecular target: HIV-1 Env of isolate MGRM-G-016 (HIV-1)
[26] = molecular target: HIV-1 Env of isolate MGRM-G-017 (HIV-1)
[27] = molecular target: HIV-1 Env of isolate MGRM-G-019 (HIV-1)
[28] = molecular target: HIV-1 Env of isolate MGRM-G-027 (HIV-1)
[29] = molecular target: HIV-1 NL43 envelope glycoprotein (Env) on pseudovirus (HIV-1)
[30] = molecular target: aMLV envelope (negative control pseudovirus)

Sequence of 5329_C19 (PGT-136) (antibody) (VH): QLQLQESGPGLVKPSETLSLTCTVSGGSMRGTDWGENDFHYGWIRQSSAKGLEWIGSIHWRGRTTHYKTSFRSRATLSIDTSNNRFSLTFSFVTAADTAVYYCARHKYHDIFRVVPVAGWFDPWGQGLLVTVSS
Sequence of 5329_C19 (PGT-136) (antibody) (VL): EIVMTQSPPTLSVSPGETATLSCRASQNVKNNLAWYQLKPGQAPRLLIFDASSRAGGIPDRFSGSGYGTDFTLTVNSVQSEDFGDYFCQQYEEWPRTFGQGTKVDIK

| Substance | IC50 (ug/ml), neutralizing activity [1] [µg/mL] | IC50 (ug/ml), neutralizing activity [2] [µg/mL] | IC50 [6] [µg/mL] | IC50 [7] [µg/mL] | IC50 [8] [µg/mL] | IC50 [9] [µg/mL] | IC50 [10] [µg/mL] | IC50 [11] [µg/mL] | IC50 [12] [µg/mL] | IC50 [13] [µg/mL] | IC50 [14] [µg/mL] | IC50 [15] [µg/mL] | IC50 [16] [µg/mL] | IC50, pseudovirus neutralization [17] [µg/mL] | IC50, pseudovirus neutralization [18] [µg/mL] | IC50, pseudovirus neutralization [19] [µg/mL] | IC50, pseudovirus neutralization [20] [µg/mL] | IC50, pseudovirus neutralization [21] [µg/mL] | IC50, pseudovirus neutralization [22] [µg/mL] | IC50, pseudovirus neutralization [23] [µg/mL] | further results |
| --- | --- | --- | --- | --- | --- | --- | --- | --- | --- | --- | --- | --- | --- | --- | --- | --- | --- | --- | --- | --- | --- |
| 5147_N06 (PGT-130) (antibody) | 1.12 | 0.014 | 0.046 | > 50 | 0.006 | 0.153 | 0.373 | > 50 | 31.9 | 0.014 | > 50 | 5.78 | 0.651 | 0.0198 | > 50 | > 50 | > 50 | > 50 | > 50 | 2.23 | IC50 (ug/ml), neutralizing activity [3]: 0.0082 µg/mL; IC50 (ug/ml), neutralizing activity [4]: 0.474 µg/mL; IC50 (ug/ml), neutralizing activity [5]: > 10 µg/mL; IC50, pseudovirus neutralization [24]: > 50 µg/mL; IC50, pseudovirus neutralization [25]: > 50 µg/mL; IC50, pseudovirus neutralization [26]: > 50 µg/mL; IC50, pseudovirus neutralization [27]: 27.9 µg/mL; IC50, pseudovirus neutralization [28]: 4.14 µg/mL; IC50 (ug/ml), neutralizing activity [29]: > 10 µg/mL; IC50, pseudovirus neutralization [30]: > 50 µg/mL |
| 5329_C19 (PGT-136) (antibody) | > 10 | 0.738 | > 50 | > 50 | > 50 | > 50 | 43.1 | > 50 | > 50 | > 50 | > 50 | > 50 | > 50 | 8.11 | > 50 | > 50 | > 50 | > 50 | > 50 | > 50 | IC50, pseudovirus neutralization [24]: > 50 µg/mL; IC50, pseudovirus neutralization [25]: > 50 µg/mL; IC50, pseudovirus neutralization [26]: > 50 µg/mL; IC50, pseudovirus neutralization [27]: 44.3 µg/mL; IC50, pseudovirus neutralization [28]: 45.2 µg/mL; IC50, pseudovirus neutralization [30]: > 50 µg/mL |
| 5343_B08 (PGT-135) (antibody) | 0.104 | 0.157 | > 50 | > 50 | > 50 | > 50 | 0.166 | > 50 | > 50 | 0.057 | 0.329 | > 50 | > 50 | 0.393 | > 50 | > 50 | > 50 | > 50 | > 50 | > 50 | IC50, pseudovirus neutralization [24]: > 50 µg/mL; IC50, pseudovirus neutralization [25]: > 50 µg/mL; IC50, pseudovirus neutralization [26]: 0.137 µg/mL; IC50, pseudovirus neutralization [27]: 0.145 µg/mL; IC50, pseudovirus neutralization [28]: 0.062 µg/mL; IC50, pseudovirus neutralization [30]: > 50 µg/mL |
